In patent US20170151309A1 one finds EC50 of inhibition of PBL transendothelial migration (static adhesion assay) data, which are given here for 1 substance.

Where two headings read alike, the source gives them in different places.

Assay in all cases: cell-based or functional assay
Assay [1] deals with adiponectin receptor 2 (human) (UniProt Q86V24).
Assay [2] deals with adiponectin receptor 1 (human) (UniProt Q96A54).
In assay [3] the target is adiponectin receptor 2 (human) (UniProt Q86V24). This is another data set of the same source.
Assay [4] deals with adiponectin receptor 1 (human) (UniProt Q96A54). This is another data set of the same source.

Sequence of adiponectin receptor 2 (human) (Q86V24 whole entry): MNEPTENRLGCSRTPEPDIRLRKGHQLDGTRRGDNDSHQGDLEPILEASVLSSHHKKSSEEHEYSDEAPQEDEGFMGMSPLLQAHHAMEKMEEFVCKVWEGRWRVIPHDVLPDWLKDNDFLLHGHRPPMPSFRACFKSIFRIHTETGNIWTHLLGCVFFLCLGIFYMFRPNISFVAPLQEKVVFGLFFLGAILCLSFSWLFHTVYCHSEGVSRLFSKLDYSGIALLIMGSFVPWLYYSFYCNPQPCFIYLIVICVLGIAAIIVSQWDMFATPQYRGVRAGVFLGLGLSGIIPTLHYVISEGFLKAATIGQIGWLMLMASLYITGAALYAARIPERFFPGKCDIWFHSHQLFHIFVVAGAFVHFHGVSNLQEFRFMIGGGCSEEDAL
Sequence of adiponectin receptor 1 (human) (Q96A54 whole entry): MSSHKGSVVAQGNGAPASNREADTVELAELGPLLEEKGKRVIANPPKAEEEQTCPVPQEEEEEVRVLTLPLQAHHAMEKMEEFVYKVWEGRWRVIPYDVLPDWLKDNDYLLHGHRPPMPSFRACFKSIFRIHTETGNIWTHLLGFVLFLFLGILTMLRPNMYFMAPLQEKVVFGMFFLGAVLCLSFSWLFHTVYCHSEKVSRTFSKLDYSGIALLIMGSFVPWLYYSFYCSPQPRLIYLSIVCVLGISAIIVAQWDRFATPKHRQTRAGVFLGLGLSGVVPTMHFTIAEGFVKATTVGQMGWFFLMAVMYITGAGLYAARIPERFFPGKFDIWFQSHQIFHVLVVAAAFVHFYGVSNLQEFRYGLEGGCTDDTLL

In the case of “adiponectin (from UniProt Q15848 19-244) (ligand)”, the EC50 of inhibition of PBL transendothelial migration (static adhesion assay) in assay [1] came to 0.04 µM; in assay [2] it was 0.04 µM; in assay [3] it was 0.94 µg/mL; in assay [4], 0.94 µg/mL.
